From US20220144936A1 (SINOCELLTECH, published 2022)
Values joined by “and” are separate entries in the source; they are usually repeats but may differ in a detail not shown here. Identical values can stand only once.

T1: mouse mIL17A protein (Sino Biological, Inc.) (mouse, UniProt Q62386 26-158)
T1 construct: also called mouse IL17A protein
T1 sequence (looked up): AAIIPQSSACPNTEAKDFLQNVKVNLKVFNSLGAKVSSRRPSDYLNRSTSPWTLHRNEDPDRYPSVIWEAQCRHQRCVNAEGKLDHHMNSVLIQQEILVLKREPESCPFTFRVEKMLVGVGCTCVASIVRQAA

B1: murine antibody IL17A-M069 (antibody, mouse IgG1, V domains shown)
VH: QAHLQQSGAELVRPGASVKLSCKALGYTFTDYEMHWVKQTPVHGLEWIGVIHPGGGGTAYNQKFKGKATLTADKSSSTAYMELSSLTSEDSAVYYCTRGDHDGRTDYWGQGTTLTVSS
VL: DIVMSQSPSSLAMSVGQKVTMNCKSNQSLLNRSNQKNYLAWYQQKPGQSPKLLVDFASTRESGVPDRFIGSGSGTDFSLTISSVQAEDLADYFCQQHYTTPFTFGSGTKLEIK
B2: humanized antibody IL17A-H069 (antibody, human IgG1, kappa, V domains shown)
VH: EVQLVQSGAEVKKPGATVKISCKASGYTFTDYEMHWVQQAPGHGLEWMGVIHPGGGGTAYNQKFKGRVTITADTSTDTAYMELSSLRSEDTAVYYCTRGDHDGRTDYWGQGTLVTVSS
VL: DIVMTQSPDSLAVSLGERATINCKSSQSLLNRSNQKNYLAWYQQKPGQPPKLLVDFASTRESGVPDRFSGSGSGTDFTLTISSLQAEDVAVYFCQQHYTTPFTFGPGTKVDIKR
notes: Humanized IgG1/kappa made in CHO-K1-GS cells

Legend:
[1] = molecular target: T2, recombinant human IL17A protein (human, UniProt Q16552 24-155); assay: cell-based or functional assay
T2 sequence (Q16552 24-155 limits assumed): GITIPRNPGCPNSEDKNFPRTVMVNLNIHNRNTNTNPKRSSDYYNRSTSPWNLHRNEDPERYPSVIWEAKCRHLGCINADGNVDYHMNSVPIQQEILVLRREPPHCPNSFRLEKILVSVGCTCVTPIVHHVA

[2] = molecular target: T3, recombinant human IL17A/F dimer protein (SinoBiological, Inc., CT047-HNAE) (human, UniProt Q16552 24-155; Q96PD4 31-163); assay: ELISA: IL17A/F coated at different concentrations, antibody fixed at 2 µg/mL, anti-human IgG Fc/HRP; EC50 is on the antigen concentration
T3 construct: Bought heterodimer; also called IL17A/IL17F protein; IL17A/F-Biotin protein
T3 sequence (Q16552 24-155 limits assumed, chain 1 of 2): as the sequence (Q16552 24-155 limits assumed) above
T3 sequence (Q96PD4 31-163 limits assumed, chain 2 of 2): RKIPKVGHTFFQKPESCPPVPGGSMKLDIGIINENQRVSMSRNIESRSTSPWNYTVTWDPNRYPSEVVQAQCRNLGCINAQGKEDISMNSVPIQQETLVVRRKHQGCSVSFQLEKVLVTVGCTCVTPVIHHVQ

[3] = molecular target: T2, recombinant human IL17A protein; assay: competition ELISA: IL17A coated, competitor IL17RA-His-biotin at 2 µg/mL, antibody varied
[4] = molecular target: T3, recombinant human IL17A/F dimer protein …; assay: cell-based or functional assay
[5] = molecular target: T2, recombinant human IL17A protein; assay: cell-based or functional assay; remark: listed apart in the source
[6] = molecular target: T1, mouse mIL17A protein (Sino Biological, …); assay: ELISA, coated antigen, goat anti-human IgG Fc/HRP
[7] = molecular target: T3, recombinant human IL17A/F dimer protein …; assay: competition ELISA: IL17RA-Fc coated (competitor), IL17A/F-Biotin at 0.8 µg/mL, antibody varied
[8] = molecular target: T2, recombinant human IL17A protein; assay: Octet (BLI), biotinylated IL17A, antibody 0.42-3.47 nM
[9] = molecular target: T3, recombinant human IL17A/F dimer protein …; assay: Octet (BLI), biotinylated IL17A/F, antibody 0.42-3.47 nM
[10] = molecular target: T2, recombinant human IL17A protein; assay: ELISA: IL17A coated at different concentrations, antibody fixed at 2 µg/mL, anti-human IgG Fc/HRP; EC50 is on the antigen concentration

Binder	EC50 of blocking IL17A-induced IL-6 secretion of HFF cells [1] [µg/mL]	EC50 [2] [µg/mL]	IC50 [3] [µg/mL]	EC50 (µg/mL), blocking IL17A/F-induced IL6 secretion of HFF cells [4]	EC50 (µg/mL), blocking IL17A-induced IL6 secretion of HFF cells [5]	binding result [6]	IC50 [7] [µg/mL]	Kd [8] [nM]	koff [8] [s⁻¹]	kon [8] [M⁻¹ s⁻¹]	Kd [9] [nM]	koff [9] [s⁻¹]	kon [9] [M⁻¹ s⁻¹]	EC50 [10] [µg/mL]
B1	0.243													
B2		0.0363	0.5	1.19 µg/mL and 0.83 µg/mL	0.2 µg/mL and 0.19 µg/mL	no binding	1.02	0.0288	1.93e-05	671000	0.537	7.72e-05	144000	0.046
